The target in assay [1] is human wild type FLT3 (human) (UniProt P36888). Kind of assay: cell-based or functional assay.
The target in assay [2] is human wild type CD123 (human) (UniProt P26951). Kind of assay: cell-based or functional assay.

We go through two substances from patent publication US20250170182A1.

UniProt P26951, sequence (P26951 19-378 limits assumed): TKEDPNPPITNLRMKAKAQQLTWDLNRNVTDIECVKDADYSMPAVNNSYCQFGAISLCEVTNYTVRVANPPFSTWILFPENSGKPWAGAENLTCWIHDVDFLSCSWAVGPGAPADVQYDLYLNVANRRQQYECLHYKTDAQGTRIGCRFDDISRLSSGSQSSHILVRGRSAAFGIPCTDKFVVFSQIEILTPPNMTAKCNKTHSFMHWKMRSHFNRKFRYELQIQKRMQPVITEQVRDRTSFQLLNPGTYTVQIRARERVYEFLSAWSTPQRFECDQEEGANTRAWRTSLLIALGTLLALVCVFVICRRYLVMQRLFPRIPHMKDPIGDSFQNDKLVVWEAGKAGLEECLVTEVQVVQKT

In the case of “4G8-CAR (IgG4 hinge, CD28 TM, CD28z, CD3z) targeting FLT3 domain 4”, the surviving K562 target cells at E:T=10 relative to E:T=0 in assay [1] is less than 2%.

With “CSL362-CAR (CD8a hinge, CD28 TM, CD28z, CD3z) targeting CD123 N-terminal domain”, in assay [2], the surviving K562 target cells at E:T=10 relative to E:T=0 is less than 2%.
